Legend:
Type in all cases: biochemical
[1] = Identifying reaction product by HPLC (TSK gel Amide-80); details: 2 mM fructosyl valyl histidine, 0.003U oxidase, 37° C. for 2 hours
Procedure: (§1) Reaction solution was assayed by HPLC to identify reaction products. First, 50 μl of reaction solution (2 mM fructosyl valyl histidine, 5 mM phosphate buffer (pH 8.0), 0.003U of the inventive oxidase) was incubated at 37° C. for 2 hours, diluted (10×) and then assayed for the reaction products in a TSK gel Amide-80 column (available from Tosoh Co., Ltd.). As a control, the same procedure was repeated except for using a buffer instead of the enzyme.
as §1, with “Similarly,” for “As”, “control sample” for “control, the same procedure”, “obtained by” for “repeated except for”, “enzyme and assayed.” for “enzyme.”

[2] = Enzyme activity assay, ε-fructosyl lysine substrate; details: for Substrate specificity (% relative activity) εFL: crude enzyme sample; for relative activity for ε-fructosyl lysine: purified oxidase, compared to 100% activity for fructosyl valyl histidine
Description: Enzyme activities of the oxidase of the invention and the oxidase of the invention that have less action on ε-fructosyl lysine (hereinafter, the term “the oxidases of the invention” may comprise both the oxidase of the invention and the oxidase of the invention that have less action on ε-fructosyl lysine) may principally be determined by determining the amount of α-ketoaldehyde, peptide, hydrogen peroxide or the like which are produced through enzyme reaction or by determining the amount of oxygen consumed by the enzyme reaction. Hereinafter, a method for determining the amount of hydrogen peroxide will be described as one example. Unless otherwise noted, fructosyl valyl histidine is used as a substrate for determining the activities of the oxidases of the invention. Titer of the enzyme is defined such that an amount of enzyme for producing 1 μmol hydrogen peroxide per minute is 1U as determined using a fructosyl valyl histidine substrate. 624 mg of fructosyl valyl histidine is dissolved in ion exchange water to a constant volume of 10 ml. Alternatively, fructosyl glycine or ε-fructosyl lysine of 357 mg or 462 mg, respectively, may be dissolved in ion exchange water to a constant volume of 10 ml to be used as a substrate. Fructosyl valine histidine was prepared as described in Japanese Patent Application Laid-Open (kohyo) No. 2001-95598. Fructosyl glycine and ε-fructosyl lysine were prepared according to a method of Horiuchi et al. (Agric. Biol. Chem., 53, 103-110, 1989; Agric. Biol. Chem., 55, 333-338, 1991). 2.7 ml of Reagent 1, 100 μl of Reagent 2 and 100 μl of enzyme solution are mixed and pre-heated at 30° C. for 5 minutes. Then, 100 μl of Reagent 3 is added and thoroughly mixed to determine absorbance at 510 nm using a spectrophotometer (U-[…], Hitachi, Ltd.). Measurement values indicate changes in the absorbance per minute at 510 nm after 1 to 3 minutes. A control solution was prepared in the same manner as described above except 100 μl ion exchange water was added instead of 100 μl Reagent 3. A standard solution of hydrogen peroxide and ion exchange water were used instead of Reagent 3 and the enzyme solution, respectively, to prepare a graph showing relationship with respect to the level of color. Referring to this graph, micromole of hydrogen peroxide produced per minute at 30° C. is calculated and used as the unit for expressing the activity of the enzyme solution. The presence of action on ε-fructosyl lysine can be determined in the same manner by using Reagent 3 (substrate solution) containing ε-fructosyl lysine substrate instead of fructosyl valyl histidine substrate.

[3] = Km value for fructosyl valyl histidine (Lineweaver-Burk plot); details: purified oxidase
Procedure: In the above-described activity assay, the activity of the oxidase was monitored using different concentrations of fructosyl valyl histidine (substrate), and Michaelis constant (Km) was determined from a Lineweaver-Burk plot.
In the above-described activity assay, activity was monitored using different concentrations of fructosyl valyl histidine (substrate), and Michaelis constant (Km) was determined from a Lineweaver-Burk plot.

[4] = reference substrate set to 100%

Molecule	reaction product identified by HPLC [1]	Substrate specificity (% relative activity) εFL [2, 4] [%]	Substrate specificity (% relative activity) εFL ([2]; relative to activity for fructosyl valyl histidine (100%)) [%]	relative activity for ε-fructosyl lysine [2] [%]	Km [3] [mM]
Eupenicillium terrenum ATCC 18547: fructosyl peptide oxidase produced by Eupenicillium terrenum ATCC 18547 with less action on ε-fructosyl lysine; amino acid sequence SEQ ID NO: 3 (protein, listed as Eupenicillium terrenum) MAHSRASTKVVVVGGGGTIGSSTALHLIRSGYTPSNITVLDVYKTPSLQSAGHDLNKIMGIRLRNGPDLQLSLESLDMWQNDELFKPFFHQVGMIDCSSSKEGIENLRRKYQTLLDAGIGLEKTNVWLESEDEILAKAPNFTREQVKGWKGLFCTDGGWLAAAKAINAIGIFLQDKGVKFGFGGAGTFQQPLFAADGKTCIGLETTDGTKYFADKVVLAAGAWSPTLVDLEDQCVSKAWVFAHIQLTPKEADAYKNVPVVYDGEYGFFFEPNEYGVIKVCDEFPGFSRFKLHQPYGAASPKMISVPRSHAKHPTDTYPDASEVTIRKAIARFLPEFKDKELFNRTMCWCTDTADANLLICEHPKWKNFILATGDSGHSFKLLPNIGKHVVELLEGSLSQEMAGAWRWRPGGDALRSRRGAPAKDLAEMPGWKHDAHL	a peak was detected only for valyl histidine	100	9.78	9.78	4.25
Coniochaeta sp. NISL 9330: fructosyl peptide oxidase produced by Coniochaeta sp. NISL 9330 (FERM BP-7798) with less action on ε-fructosyl lysine; amino acid sequence SEQ ID NO: 1 (protein, listed as Coniochaeta sp.) MTSNRADTRVIVVGGGGTIGSSTALHLVRSGYAPANITVLDTFEIPSAQSAGHDLNKIMGIRLRNKVDLQMSLEARQMWKEDELFQPFFHNTGRMDCEHTPEGIEDLKKQYQALHDAGAGLEKTHAWLDNEDEILSKMPLLQRDQIQGWKAIWSQDGGWLAAAKAINAIGQFLKERGVKFGFGGAGSFKQPLFDDEGTTCIGVETADGTKYYADKVVLAAGAWSPTLVDLEDQCCSKAWVYAHIQLTPEEAAEYKGVPVVYNGEFGFFFEPNEFGVIKVCDEFPGFSRFKEHQPYGAPSPKHISVPRSHAKHPTDTYPDASEVSIKKAIATFLPRFQDKELFNRALCWCTDTADAALLMCEHPKWKNFILATGDSGHSFKILPNVGKHVVELIEGRLPEEMAYQWRWRPGGDALKSRRAAPPKDLADMPGWKHDPKL		100		61	

Source: US7419813B2, “Fructosyl peptide oxidase” (Kikkoman Corporation, priority 2001, dated 2008)
